Entries after “also recorded” stand apart in the source; their conditions may differ. Bridges are numbered along the chain shown (N, C = ends). Where no end group is shown, it is not given here.

Experimental findings from patent US20020077289A1, “Angiostatin and endostatin binding proteins and methods of use” (priority 2000, published 2002) are described below.

For assay [1], the target named is T1, rhTM3 (human tropomyosin isoform 3) (Homo sapiens, UniProt P09493).
T1 construct: made in house; host or cells: E. coli BL21 (DE3), pET-21a(+)
T1 sequence (P09493 1-284 isoform P09493-3): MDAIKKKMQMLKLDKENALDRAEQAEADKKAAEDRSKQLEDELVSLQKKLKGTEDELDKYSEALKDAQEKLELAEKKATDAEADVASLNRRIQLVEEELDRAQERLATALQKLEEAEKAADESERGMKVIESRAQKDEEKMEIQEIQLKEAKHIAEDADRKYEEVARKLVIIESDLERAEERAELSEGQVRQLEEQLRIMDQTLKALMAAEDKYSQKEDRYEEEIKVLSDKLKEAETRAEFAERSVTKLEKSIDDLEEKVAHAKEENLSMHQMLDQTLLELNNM
The experiment in a line: Surface plasmon resonance (BIAcore) binding to immobilized rhTM3. The protocol: (A), 0, 10, 20, 40, 80 and 160 micromolar (μM) of rhEndostatin were injected at 5 microliters per minute (μl/minute) for 960 seconds through a biosensor flow cell that had been activated and blocked as a control for bulk refractive index and subsequently through a flow cell to which 3200 response units (RU) of rhTM3 had been immobilized. The binding kinetics were recorded and the differences between the two curves plotted for each rhEndostatin concentration. (B), 0, 11.5, 23 and 46 micromolar (μM) of rhAngiostatin were injected at 5 microliters per minute (μl/minute) for 900 seconds over a flow cell containing 3200 RU of rhTM3 as above. Samples were run in duplicate, the data corrected for bulk shift and the average of the 2 curves plotted. (C), Injection of 5 micromolar (μM) of rhEndostatin at 5 microliters per minute (μl/minute) for 240 seconds in the presence of 0, 6, 15, 30 and 45 micromolar (μM) of soluble rhTM3 over a flow cell containing 2000 RU of rhTM3. Samples were run in duplicate, the reference cell values subtracted and the average of each of the 2 curves plotted. The spikes in RU seen at the beginning and end of each injection are due to lag in flow caused by the rhTM3 and reference cells being non-adjacent.
Interactions between purified soluble rhEndostatin and rhTM3 were evaluated by surface plasmon resonance using the BIAcore 3000 (BiaCore, Piscataway, N.J.). The purified rhTM3 was immobilized on the flow cell of a CM-5 BIAcore biosensor chip. The running buffer was 0.01 M HEPES, pH 7.4, 0.15M NaCl and 0.005% polysorbate 20 (v/v). The competition experiments involving soluble rhTM3 were performed using PBS pH 7.4 as running buffer. All measurements were performed at 25° C. To correct for differences in bulk refraction all protein preparations were passed over an activated and blocked flow cell to which no protein had been coupled. Effects due to bulk shift were subtracted from experimental data.
Surface plasmon resonance performed using the BIAcore 3000 (BiaCore, Piscataway, N.J.) was used to assess the kinetics of rhEndostatin/rhTM3 binding. […]
In general terms: Surface plasmon resonance follows binding to a sensor surface in real time, without labels.

A further assay has as its target T2, rhEndostatin (Homo sapiens, UniProt P39060).
T2 construct: rhEndostatin were produced in P. pastoris and purified to homogeneity; made in house; host or cells: Pichia pastoris
T2 sequence (P39060 1572-1754 limits assumed): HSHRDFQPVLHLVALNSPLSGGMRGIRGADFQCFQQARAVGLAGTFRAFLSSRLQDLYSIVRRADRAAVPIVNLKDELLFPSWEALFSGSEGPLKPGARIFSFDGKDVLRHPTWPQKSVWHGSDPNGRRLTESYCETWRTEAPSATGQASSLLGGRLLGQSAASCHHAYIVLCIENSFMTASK
The experiment in a line: ELISA of tropomyosin binding to rhEndostatin coated wells. To be noted: wells coated with 5 μg/ml rhEndostatin or BSA, detection with TM311 anti-tropomyosin. On the procedure: FIG. 13 provides a graph showing that rhTM3 binds rhEndostatin in vitro. The wells of a 96-well plate were coated with either 5 micrograms/milliliter (μg/ml) of rhEndostatin (closed symbols) or BSA (open symbols) and incubated with increasing amounts of control E. coli lysate (circles) or tropomyosin expressing λ21-1 bacterial lysate (squares). The amount of tropomyosin binding to each well was determined spectrophotometrically following the addition of the TM311 anti-tropomyosin ascites fluid, alkaline phosphatase conjugated anti-mouse IgG and substrate. Error bars indicate standard deviation of the mean.
Plates were coated with 5 μg/ml of BSA or rhEndostatin and blocked. Dilutions of λ21-1 or control lysate were added and incubated for 1 hour at 37° C., followed by incubation with 1:500 diluted anti-tropomyosin TM311 ascites fluid (Sigma, St. Louis, Miss.). Following incubation in 1:5000 diluted anti-mouse IgG (H+L) conjugated to alkaline phosphatase (Promega, Madison, Wis.) wells were developed using Blue Phos Phosphatase Substrate (Kirkegaard and Perry, Gaithersburg, Md.) and the OD635 measured.
In this experiment the wells of a 96 well plate were either coated with 5 μg/ml of Endostatin protein or BSA protein. […] The wells were washed and incubated with anti-tropomyosin antibodies followed by anti-mouse IgG AP conjugated antibodies and developed using KPL Blue Phos microwell phosphatase solution. The OD635 was measured after a one hour incubation at room temperature and the results plotted in FIG. 8.
Recombinant human Endostatin protein and hTM3 were also shown to interact in a capture ELISA (FIG. 8).

The target of assay [2] is recombinant human Endostatin protein (human). The experiment in a line: cell-based or functional assay.

Take “rhTM3: recombinant human tropomyosin isoform 3 (fibroblast tropomyosin), SEQ ID NO:119; also as λ21-1 bacterial lysate (EKVAHAKEENLSMHQMLDQTLLELNNM)”: the “competition for binding of rhEndostatin to immobilized rhTM3” value in assay [1] (5 μM rhEndostatin with 0-45 μM soluble rhTM3, 2000 RU immobilized rhTM3) is on record as “competed for the binding of rhEndostatin”. Also, the “binding of tropomyosin to rhEndostatin” value in the assay with rhEndostatin is on record as “binds”; with rhEndostatin (listed as hTM3), “higher immunoreactivity in rhEndostatin coated wells than in wells coated with BSA; also recorded: binds”; with rhEndostatin (listed as tropomyosin) it was “considerably more tropomyosin bound”.

B1: rhAngiostatin K1-3: recombinant human Angiostatin kringles 1-3 produced in P. pastoris, used as negative control (protein)
chain: VYLSECKTGNGKNYRGTMSKTKNGITCQKWSSTSPHRPRFSPATHPSEGLEENYCRNPDNDPQGPWCYTTDPEKRYDYCDILECEEECMHCSGENYDGKISKTMSGLECQAWDSQSPHAHGYIPSKFPNKNLKKNYCRNPDRELRPWCFTTDPNKRWELCDIPRCTTPPPSSGPTYQCLKGTGENYRGNVAVTVSGHTCQHWSAQTPHTHNRTPENFPCKNLDENYCRNPDGKRAPWCHTTNSQVRWEYCKIPSCDSSPV
Turning to B1, in assay [1] (negative control, similar concentrations (0-46 μM) passed over the rhTM3 chip), the “specific binding to immobilized rhTM3” value was “no evidence of specific binding”.
With CTHWWHKRCGGGS (disulfide 1-9) [E37 peptide (synthetic, cyclized)], in assay [2], the decrease in the anti-tumor activity of rhEndostatin (B16-BL6 lung metastases), 1.5 nmol rhEndostatin co-injected with 15 nmol E37 peptide was determined as 11 percent; the decrease in the anti-tumor activity of rhEndostatin (B16-BL6 lung metastases), 1.5 nmol rhEndostatin co-injected with 75 nmol E37 peptide stood at 30.5 percent; the decrease in the anti-tumor activity of rhEndostatin (B16-BL6 lung metastases), 1.5 nmol rhEndostatin co-injected with 375 nmol E37 peptide came out at 84.5 percent; the inhibition of lung metastasis, 1.5 nmol rhEndostatin co-administered with a 250-fold molar excess of E37 peptide was found to be 11%. For the same molecule, in assay [2], the inhibition of the formation of lung metastasis (B16BL6), 30 µg Endostatin protein plus 10 fold molar excess of E37 peptide is 76%; the inhibition of the formation of lung metastasis (B16BL6), 30 µg Endostatin protein plus 50 fold molar excess of E37 peptide was 61%; the inhibition of the formation of lung metastasis (B16BL6), 30 µg Endostatin protein plus 250 fold molar excess of E37 peptide was 21%.
